Experimental data from patent US20260166140A1, “Combinations Involving Epidermal Growth Factor Receptor Tyrosine Kinase Inhibitors For the Treatment of Cancer” (AstraZeneca AB, priority 2022, published 2026).

Assays:
[1] = target: T1, Cynomolgus monkey cMET (recombinant, soluble monomeric) (cynomolgus monkey, UniProt A0M8R7 25-932 (Papio anubis entry)); assay: SPR, Biacore T200, antibody captured on anti-human IgG, soluble monomeric antigen as analyte, 25 C
T1 construct: also called cyno cMET

[2] = target: T2, Human cMET (recombinant, soluble monomeric) (human, UniProt P08581 25-932); assay: as above
T2 construct: in the HTRF assay it is called the human cMET receptor; also called His-tagged cMET antigen
T2 sequence (P08581 25-932): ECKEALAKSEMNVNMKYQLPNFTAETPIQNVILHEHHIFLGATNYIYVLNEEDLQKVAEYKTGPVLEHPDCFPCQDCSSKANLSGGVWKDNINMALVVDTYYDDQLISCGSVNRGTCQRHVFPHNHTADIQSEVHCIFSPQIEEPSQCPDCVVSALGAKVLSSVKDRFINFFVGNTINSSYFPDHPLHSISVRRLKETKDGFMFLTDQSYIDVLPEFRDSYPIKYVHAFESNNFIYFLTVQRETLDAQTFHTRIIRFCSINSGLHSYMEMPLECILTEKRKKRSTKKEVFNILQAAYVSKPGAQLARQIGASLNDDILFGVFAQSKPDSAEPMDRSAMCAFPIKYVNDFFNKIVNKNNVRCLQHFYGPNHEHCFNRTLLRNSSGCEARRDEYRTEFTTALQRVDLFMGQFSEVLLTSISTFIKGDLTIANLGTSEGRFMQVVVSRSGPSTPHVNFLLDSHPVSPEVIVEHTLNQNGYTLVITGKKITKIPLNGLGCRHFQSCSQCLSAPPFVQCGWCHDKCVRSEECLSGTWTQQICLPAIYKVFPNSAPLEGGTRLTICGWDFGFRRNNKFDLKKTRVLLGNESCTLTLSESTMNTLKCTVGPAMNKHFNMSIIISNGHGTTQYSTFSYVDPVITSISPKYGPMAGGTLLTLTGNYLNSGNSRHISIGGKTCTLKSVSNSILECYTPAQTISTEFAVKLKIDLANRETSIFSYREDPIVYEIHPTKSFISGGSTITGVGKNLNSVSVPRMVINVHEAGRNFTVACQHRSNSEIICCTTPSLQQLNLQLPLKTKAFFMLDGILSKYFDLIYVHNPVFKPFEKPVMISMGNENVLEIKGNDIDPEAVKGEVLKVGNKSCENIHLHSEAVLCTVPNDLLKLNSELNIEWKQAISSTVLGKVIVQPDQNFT

[3] = target: T3, Mouse EGFR (recombinant, soluble monomeric) (mouse, UniProt Q01279 25-647); assay: ELISA: antigen coated at 1 ug/mL, antibody dilution series, goat anti-human Fab-HRP, A450; panel Mouse EGFR
T3 construct: also called murine EGFR

Mouse cMET (recombinant) = Mouse cMET (recombinant) (mouse, UniProt P16056 25-929, limits assumed); assay: ELISA: antigen coated at 1 ug/mL, antibody dilution series, goat anti-human Fab-HRP, A450; panel Mouse cMET
Chain of Mouse cMET (recombinant) (P16056 25-929 limits assumed): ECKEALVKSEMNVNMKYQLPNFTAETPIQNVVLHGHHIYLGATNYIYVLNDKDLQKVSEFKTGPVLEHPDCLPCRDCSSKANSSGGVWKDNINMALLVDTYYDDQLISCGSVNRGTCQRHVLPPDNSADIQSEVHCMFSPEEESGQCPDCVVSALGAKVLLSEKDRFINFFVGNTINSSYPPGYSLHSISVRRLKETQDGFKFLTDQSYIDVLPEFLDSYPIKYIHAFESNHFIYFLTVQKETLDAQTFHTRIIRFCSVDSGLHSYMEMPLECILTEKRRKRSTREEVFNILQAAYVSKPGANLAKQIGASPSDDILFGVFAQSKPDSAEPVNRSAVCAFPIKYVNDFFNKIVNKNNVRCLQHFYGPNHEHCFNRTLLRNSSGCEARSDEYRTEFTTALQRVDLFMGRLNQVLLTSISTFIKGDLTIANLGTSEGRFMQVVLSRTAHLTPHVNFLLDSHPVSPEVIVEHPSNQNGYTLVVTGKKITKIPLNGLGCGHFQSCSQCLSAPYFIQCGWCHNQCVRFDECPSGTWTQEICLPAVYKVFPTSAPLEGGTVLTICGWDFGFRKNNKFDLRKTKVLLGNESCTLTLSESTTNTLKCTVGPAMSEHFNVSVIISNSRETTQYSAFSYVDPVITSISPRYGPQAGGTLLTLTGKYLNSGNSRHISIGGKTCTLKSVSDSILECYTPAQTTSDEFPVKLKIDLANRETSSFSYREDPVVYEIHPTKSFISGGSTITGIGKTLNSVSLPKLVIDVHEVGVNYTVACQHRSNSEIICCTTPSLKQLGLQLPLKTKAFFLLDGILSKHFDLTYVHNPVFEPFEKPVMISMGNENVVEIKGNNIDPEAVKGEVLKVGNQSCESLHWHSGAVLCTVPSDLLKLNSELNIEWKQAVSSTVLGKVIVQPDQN

HER2 = target: T4, HER2 (UniProt P04626 23-652, limits assumed); assay: ELISA: antigen coated at 1 ug/mL, antibody dilution series, goat anti-human Fab-HRP, A450; panel Human HER2
T4 construct: also called EGFR HER family protein HER2

HER3 = target: T5, HER3 (UniProt P21860 20-643, limits assumed); assay: ELISA: antigen coated at 1 ug/mL, antibody dilution series, goat anti-human Fab-HRP, A450; panel Human HER3
T5 construct: also called EGFR HER family protein HER3

HER4 = target: T6, HER4 (UniProt Q15303 26-649, limits assumed); assay: ELISA: antigen coated at 1 ug/mL, antibody dilution series, goat anti-human Fab-HRP, A450; panel Human HER4
T6 construct: also called EGFR HER family protein HER4
T6 sequence (looked up): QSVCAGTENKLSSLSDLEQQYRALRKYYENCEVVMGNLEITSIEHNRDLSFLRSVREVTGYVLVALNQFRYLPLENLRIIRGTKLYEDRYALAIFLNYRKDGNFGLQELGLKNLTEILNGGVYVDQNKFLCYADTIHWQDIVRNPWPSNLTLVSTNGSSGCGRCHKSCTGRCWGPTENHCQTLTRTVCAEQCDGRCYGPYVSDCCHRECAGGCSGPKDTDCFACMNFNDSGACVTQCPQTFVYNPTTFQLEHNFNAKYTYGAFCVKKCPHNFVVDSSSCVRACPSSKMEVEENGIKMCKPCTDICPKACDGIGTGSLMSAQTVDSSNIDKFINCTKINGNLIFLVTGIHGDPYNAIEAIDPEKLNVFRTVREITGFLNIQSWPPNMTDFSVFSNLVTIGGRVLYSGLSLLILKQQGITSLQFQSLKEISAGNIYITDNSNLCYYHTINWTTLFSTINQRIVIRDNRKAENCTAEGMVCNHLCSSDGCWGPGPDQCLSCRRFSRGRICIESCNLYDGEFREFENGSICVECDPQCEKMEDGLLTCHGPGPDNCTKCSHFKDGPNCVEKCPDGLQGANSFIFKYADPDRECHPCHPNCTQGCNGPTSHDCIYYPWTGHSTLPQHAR

Semaphorin 3a = target: T7, Semaphorin 3a (UniProt Q14563 21-771, limits assumed); assay: ELISA: antigen coated at 1 ug/mL, antibody dilution series, goat anti-human Fab-HRP, A450; panel Human Sema3a
T7 construct: also called Sema 3a
T7 sequence (looked up): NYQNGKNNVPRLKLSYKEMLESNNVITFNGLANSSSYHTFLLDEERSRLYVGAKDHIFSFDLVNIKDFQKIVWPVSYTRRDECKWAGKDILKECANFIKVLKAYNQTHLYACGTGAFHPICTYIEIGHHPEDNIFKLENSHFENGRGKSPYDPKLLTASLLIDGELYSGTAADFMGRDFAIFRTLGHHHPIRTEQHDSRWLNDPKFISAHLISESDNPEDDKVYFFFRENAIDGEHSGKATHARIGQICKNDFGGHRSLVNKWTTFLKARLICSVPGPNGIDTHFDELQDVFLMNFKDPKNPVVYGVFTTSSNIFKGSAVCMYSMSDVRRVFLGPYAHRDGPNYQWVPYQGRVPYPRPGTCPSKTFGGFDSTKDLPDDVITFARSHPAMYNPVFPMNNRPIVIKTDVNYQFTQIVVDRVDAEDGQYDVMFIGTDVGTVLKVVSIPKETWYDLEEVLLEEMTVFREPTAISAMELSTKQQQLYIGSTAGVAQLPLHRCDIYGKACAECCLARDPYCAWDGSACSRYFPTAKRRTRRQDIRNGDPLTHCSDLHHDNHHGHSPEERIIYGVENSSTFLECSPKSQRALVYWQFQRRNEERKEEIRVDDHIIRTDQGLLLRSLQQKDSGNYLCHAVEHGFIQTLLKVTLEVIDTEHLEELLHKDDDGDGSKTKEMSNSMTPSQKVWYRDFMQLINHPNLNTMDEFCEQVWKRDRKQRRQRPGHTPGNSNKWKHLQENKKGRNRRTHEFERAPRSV

[4] = target: T8, Cynomolgus monkey EGFR (recombinant, soluble monomeric) (cynomolgus monkey, UniProt P55245 25-645 (rhesus entry)); assay: ELISA: antigen coated at 1 ug/mL, antibody dilution series, goat anti-human Fab-HRP, A450; panel Cynomolgus EGFR
T8 construct: also called cyno EGFR

Ron (CD136) = Ron (CD136) (UniProt Q04912 25-957, limits assumed); assay: ELISA: antigen coated at 1 ug/mL, antibody dilution series, goat anti-human Fab-HRP, A450; panel Human Ron (CD136)
[5] = target: T9, Human EGFR (recombinant, soluble monomeric) (human, UniProt P00533 25-645); assay: Octet biolayer interferometry, antigen capture format: His-tagged human cMET on NI-NTA sensors, then antibody (66 nM), then human EGFR (500 nM)
T9 construct: also called EGFR antigen

[6] = target: T9, Human EGFR (recombinant, soluble …); assay: SPR, Biacore T200, antibody captured on anti-human IgG, soluble monomeric antigen as analyte, 25 C
[7] = target: T8, Cynomolgus monkey EGFR (recombinant, …); assay: as above
[8] = target: T3, Mouse EGFR (recombinant, soluble …); assay: as above
[9] = target: T2, Human cMET (recombinant, soluble …); assay: ELISA: antigen coated at 1 ug/mL, antibody dilution series, goat anti-human Fab-HRP, A450; panel Human cMET
[10] = target: T1, Cynomolgus monkey cMET (recombinant, …); assay: ELISA: antigen coated at 1 ug/mL, antibody dilution series, goat anti-human Fab-HRP, A450; panel Cynomolgus cMET
[11] = target: T2, Human cMET (recombinant, soluble …); assay: Octet biolayer interferometry, antigen capture format: His-tagged human cMET on NI-NTA sensors, then antibody (66 nM), then human EGFR (500 nM)

T1 sequence (A0M8R7 25-932 S170N/I621T): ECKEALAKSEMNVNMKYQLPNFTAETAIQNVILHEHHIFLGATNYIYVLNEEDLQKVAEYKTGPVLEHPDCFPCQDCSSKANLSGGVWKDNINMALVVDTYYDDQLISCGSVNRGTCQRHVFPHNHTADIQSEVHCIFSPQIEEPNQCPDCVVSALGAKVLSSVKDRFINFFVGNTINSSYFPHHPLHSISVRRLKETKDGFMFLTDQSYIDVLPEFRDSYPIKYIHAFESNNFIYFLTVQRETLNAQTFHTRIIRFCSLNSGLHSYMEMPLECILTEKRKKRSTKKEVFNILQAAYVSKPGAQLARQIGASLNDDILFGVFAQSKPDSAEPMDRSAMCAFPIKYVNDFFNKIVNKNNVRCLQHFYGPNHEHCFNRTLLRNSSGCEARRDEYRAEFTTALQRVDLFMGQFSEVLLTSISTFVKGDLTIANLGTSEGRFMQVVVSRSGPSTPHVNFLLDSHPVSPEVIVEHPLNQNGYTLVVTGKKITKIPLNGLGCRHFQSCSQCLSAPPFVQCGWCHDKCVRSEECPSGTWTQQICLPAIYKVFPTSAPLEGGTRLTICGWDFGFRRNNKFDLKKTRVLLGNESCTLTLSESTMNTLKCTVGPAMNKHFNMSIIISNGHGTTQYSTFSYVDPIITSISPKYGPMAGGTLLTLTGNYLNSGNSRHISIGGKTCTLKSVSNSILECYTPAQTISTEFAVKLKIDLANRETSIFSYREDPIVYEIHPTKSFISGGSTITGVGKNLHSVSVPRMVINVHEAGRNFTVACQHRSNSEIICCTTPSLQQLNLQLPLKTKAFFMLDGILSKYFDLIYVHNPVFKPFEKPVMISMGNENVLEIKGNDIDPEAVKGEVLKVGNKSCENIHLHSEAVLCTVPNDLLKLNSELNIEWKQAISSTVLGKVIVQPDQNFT

B1: B09-57 IgG (antibody, V domains shown)
VH: QVQLVQSGAEVKKPGASVKVSCKASGYTFTDYYIHWVRQATGQGLEWMGWMNPNSGNTGYAQKFQGRVTMTRDTSISTAYMELSSLRSEDTAVYYCARGQGYTHSWGQGTMVTVSS
VL: DIQMTQSPSTLSASVGDRVTITCRASEGIYHWLAWYQQKPGKAPKLLIYKASSLASGVPSRFSGSGSGTEFTLTISSLQPDDFATYYCQQYSNYPPTFGGGTKLEIK
notes: also called B09-GL; cMET IgG B09
Which results are given for B1?
Kd [1]: 1.9 nM; koff [1]: 0.00194 s⁻¹; kon [1]: 1.04e+06 M⁻¹ s⁻¹; Kd [2]: 1.6 nM; koff [2]: 0.000882 s⁻¹; kon [2]: 563000 M⁻¹ s⁻¹; binding result [3]: no binding (tested: 10 ug/ml); binding result (Mouse cMET (recombinant)): no binding (tested: 10 ug/ml); binding result (HER2): no binding (tested: 10 ug/ml); binding result (HER3): no binding (tested: 10 ug/ml); binding result (HER4): no binding (tested: 10 ug/ml); binding result (Semaphorin 3a): no binding (tested: 10 ug/ml); binding result [4]: no binding (tested: 10 ug/ml); binding result (Ron (CD136)): no binding (tested: 10 ug/ml); binding result [5]: no binding (tested: 500 nM EGFR)

B2: RAA22 IgG (antibody, V domains shown)
VH: QVQLVQSGAEVKKPGSSVKVSCKASGGTFSDNDFSWVRQAPGQGLEWMGAIVAVFRTETYAQKFQDRVKITADISTRTTYMELSSLRSEDTAVYYCARRLMSAISGPGAPLLMWGQGTLVTVSS
VL: QSALTQPRSVSGSPGQSVTISCTGTSSDVGGYNYVSWYQQHPGKAPKLMIYDVSKRPSGVPDRFSGSKSGNTASLTISGLQAEDEADYYCSSYTSSDTLEIFGGGTKLTVL
Which results are given for B2?
Kd [6]: 46.6 nM; koff [6]: 0.00206 s⁻¹; kon [6]: 44100 M⁻¹ s⁻¹; Kd [7]: 170 nM; koff [7]: 0.00601 s⁻¹; kon [7]: 35400 M⁻¹ s⁻¹; Kd [8]: 488 nM; koff [8]: 0.019 s⁻¹; kon [8]: 40300 M⁻¹ s⁻¹; binding result [9]: no binding (tested: 10 ug/ml); binding result (Mouse cMET (recombinant)): no binding (tested: 10 ug/ml); binding result (HER2): no binding (tested: 10 ug/ml); binding result (HER3): no binding (tested: 10 ug/ml); binding result (HER4): no binding (tested: 10 ug/ml); binding result (Semaphorin 3a): no binding (tested: 10 ug/ml); binding result [10]: no binding (tested: 10 ug/ml); binding result (Ron (CD136)): no binding (tested: 10 ug/ml)

B3: QD6 IgG (antibody, V domains shown)
VH: QVQLVQSGAEVKKPGSSVKVSCKASGGTFSDNDFSWVRQAPGQGLEWMGAIVAVVRTETYAQKFQDRVKITADISTRTTYMELSSLRSEDTAVYYCARRLMSAISGPGAPLLMWGQGTLVTVSS
VL: QSALTQPRSVSGSPGQSVTISCTGTSSDVGGYNYVSWYQQHPGKAPKLMIYDVSERPSGVPDRFSGSKSGNTASLTISGLQAEDEADYYCFSYTSSDTLEIFGGGTKLTVL
notes: also called anti-EGFR antibody clone QD6
With B3 as the binder, how does the Kd [6] read?
Its Kd is 2 nM.

And the koff [6]?
The koff was 0.000292 s⁻¹.

And the kon [6]?
Its kon is 148000 M⁻¹ s⁻¹.

And the Kd [7]?
The Kd was 2.5 nM.

What about the koff [7] of the same binder?
Its koff is 0.000288 s⁻¹.

And the kon [7]?
Its kon is 114000 M⁻¹ s⁻¹.

What about the Kd [8] of the same binder?
Its Kd is 4.4 nM.

What about the koff [8] of the same binder?
The koff was 0.000735 s⁻¹.

And the kon [8]?
The kon was 167000 M⁻¹ s⁻¹.

Does B3 bind (Mouse cMET (recombinant))?
Result: no binding (tested: 10 ug/ml)

Does B3 bind (HER2)?
Result: no binding (tested: 10 ug/ml)

Does B3 bind (HER3)?
Result: no binding (tested: 10 ug/ml)

Does B3 bind (HER4)?
Result: no binding (tested: 10 ug/ml)

Does B3 bind (Semaphorin 3a)?
Result: no binding (tested: 10 ug/ml)

Does B3 bind [10]?
Result: no binding (tested: 10 ug/ml)

Does B3 bind (Ron (CD136))?
Result: no binding (tested: 10 ug/ml)

Does B3 bind [11]?
Result: no binding (tested: 66 nM)
